The values that follow come from US20180155451A1 (published 2018).

Assay [1] addresses T1, FcγRIIa R (extracellular domain, C-terminal His tag) (human, UniProt P12318 34-217).
T1 construct: extracellular domain; Soluble receptor used as analyte in Biacore; also called FcgRIIa R; 2aR; not shown: His tag attached to the C terminus
T1 sequence (looked up): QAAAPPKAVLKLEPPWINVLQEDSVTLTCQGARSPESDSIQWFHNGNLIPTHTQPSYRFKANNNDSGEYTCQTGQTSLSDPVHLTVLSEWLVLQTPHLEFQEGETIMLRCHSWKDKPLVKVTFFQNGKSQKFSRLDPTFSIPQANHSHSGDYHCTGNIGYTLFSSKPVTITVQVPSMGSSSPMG
Put plainly: SPR (Biacore T100), antibody captured on antigen peptide chip, FcγR as analyte; relative binding amount. The procedure:
(§1) The heterodimerized antibodies He Abs in which one of the H chains was introduced with an alteration were assayed for their binding activities to each activating FcγR and inhibitory FcγR according to the method described in Example 4. […] The activating FcγRs in FIGS. 26, 27, 28, and 29 are FcγRIa, FcγRIIa (R), FcγRIIa (H), and FcγRIIIa, respectively.
(§2) Analysis of interaction between objective antibody and the FcγR was carried out using Biacore T100 (GE Healthcare). HBS-EP+ (GE Healthcare) was used as the running buffer, and the measurement temperature was set to 25° C. Chips produced by immobilizing the antigen peptide by the amine coupling method to a Series S Sencor Chip CM5 (GE Healthcare), or alternatively, chips produced by allowing preliminarily biotinylated antigen peptides to interact with and immobilize onto a Series S Sensor Chip SA (certified) (GE Healthcare) were used. Antibodies of interest were captured onto an antigen peptide-immobilized chip, and allowed to interact to each FcγR diluted with running buffer. To regenerate and repeatedly use the chip, the antibodies captured on the chip were washed off by reacting 10 mM glycine-HCl, pH 1.5.
(SPR reads the build-up and loss of mass on a sensor chip optically.)

The target in assay [2] is T2, FcγRIIb (extracellular domain, C-terminal His tag) (human, UniProt P31994 43-217).
T2 construct: extracellular domain; Soluble receptor used as analyte in Biacore; also called FcgRIIb; 2b; not shown: His tag attached to the C terminus
T2 sequence (looked up): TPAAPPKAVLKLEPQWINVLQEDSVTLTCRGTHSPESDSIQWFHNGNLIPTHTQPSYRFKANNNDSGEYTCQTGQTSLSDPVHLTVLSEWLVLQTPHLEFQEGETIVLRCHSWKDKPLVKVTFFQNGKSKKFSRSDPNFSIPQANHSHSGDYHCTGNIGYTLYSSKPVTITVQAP
The description is as above. The procedure: as §1, §2

Assay [3] has as its target T1, FcγRIIa R (extracellular domain, …). Put plainly: SPR (Biacore); He/Con for FcγRIIa R divided by He/Con for FcγRIIb. As for the experimental part:
as §1, §2

B1: heterodimerized antibody GpH7-A5/GpH7-B3 variant L328_20W/GpL16-k0 (antibody, human IgG1, kappa)
heavy 1: not shown
heavy 2: not shown
light: DIVMTQSPLSLPVTPGEPASISCQASESLVHSNRNTYLHWYLQKPGQSPQLLIYKVSNRFSGVPDRFSGSGSGTDFTLKISRVEAEDVGVYYCSQNTHVPPTFGQGTKVEIERTVAAPSVFIFPPSDEQLKSGTASVVCLLNNFYPREAKVQWKVDNALQSGNSQESVTEQDSKDSTYSLSSTLTLSKADYEKHKVYACEVTHQGLSSPVTKSFNRGEC
notes: Anti-glypican-3 IgG1 with the alteration in only one H chain (the GpH7-B3 chain); also called He Ab
Turning to B1, the “He/Con_2aR (IIaR binding)” value in assay [1] is 155 % of control (GpH7-A5/GpH7-B3/GpL16-k0 = 100). In addition, the “He/Con_2b (IIb binding)” value in assay [2] is 235 % of control (GpH7-A5/GpH7-B3/GpL16-k0 = 100). The “He_2aR/2b (IIaR/IIb)” value in assay [3] is 0.66 ratio.

B2: heterodimerized antibody GpH7-A5/GpH7-B3 variant I332_11K/GpL16-k0 (antibody, human IgG1, kappa)
heavy 1: not shown
heavy 2: not shown
light: DIVMTQSPLSLPVTPGEPASISCQASESLVHSNRNTYLHWYLQKPGQSPQLLIYKVSNRFSGVPDRFSGSGSGTDFTLKISRVEAEDVGVYYCSQNTHVPPTFGQGTKVEIERTVAAPSVFIFPPSDEQLKSGTASVVCLLNNFYPREAKVQWKVDNALQSGNSQESVTEQDSKDSTYSLSSTLTLSKADYEKHKVYACEVTHQGLSSPVTKSFNRGEC
notes: as for B1
For the molecule B2, in assay [1], the “He/Con_2aR (IIaR binding)” value was 43.1 % of control (GpH7-A5/GpH7-B3/GpL16-k0 = 100). The “He/Con_2b (IIb binding)” value in assay [2] is 70.9 % of control (GpH7-A5/GpH7-B3/GpL16-k0 = 100). In assay [3], the “He_2aR/2b (IIaR/IIb)” value was 0.61 ratio.

B3: heterodimerized antibody GpH7-A5/GpH7-B3 variant L328_15Y/GpL16-k0 (antibody, human IgG1, kappa)
heavy 1: not shown
heavy 2: not shown
light: DIVMTQSPLSLPVTPGEPASISCQASESLVHSNRNTYLHWYLQKPGQSPQLLIYKVSNRFSGVPDRFSGSGSGTDFTLKISRVEAEDVGVYYCSQNTHVPPTFGQGTKVEIERTVAAPSVFIFPPSDEQLKSGTASVVCLLNNFYPREAKVQWKVDNALQSGNSQESVTEQDSKDSTYSLSSTLTLSKADYEKHKVYACEVTHQGLSSPVTKSFNRGEC
notes: as for B1
Regarding B3, in assay [1], the “He/Con_2aR (IIaR binding)” value is 136 % of control (GpH7-A5/GpH7-B3/GpL16-k0 = 100). For the same molecule, in assay [2], the “He/Con_2b (IIb binding)” value is 193 % of control (GpH7-A5/GpH7-B3/GpL16-k0 = 100). In addition, in assay [3], the “He_2aR/2b (IIaR/IIb)” value is 0.7 ratio.

B4: heterodimerized antibody GpH7-A5/GpH7-B3 variant L328_18N/GpL16-k0 (antibody, human IgG1, kappa)
heavy 1: not shown
heavy 2: not shown
light: DIVMTQSPLSLPVTPGEPASISCQASESLVHSNRNTYLHWYLQKPGQSPQLLIYKVSNRFSGVPDRFSGSGSGTDFTLKISRVEAEDVGVYYCSQNTHVPPTFGQGTKVEIERTVAAPSVFIFPPSDEQLKSGTASVVCLLNNFYPREAKVQWKVDNALQSGNSQESVTEQDSKDSTYSLSSTLTLSKADYEKHKVYACEVTHQGLSSPVTKSFNRGEC
notes: as for B1
Turning to B4, the “He/Con_2aR (IIaR binding)” value in assay [1] is 59.4 % of control (GpH7-A5/GpH7-B3/GpL16-k0 = 100). In addition, in assay [2], the “He/Con_2b (IIb binding)” value is 80.8 % of control (GpH7-A5/GpH7-B3/GpL16-k0 = 100). The “He_2aR/2b (IIaR/IIb)” value in assay [3] came to 0.73 ratio.
